{"source": "patent US20030105008A1", "about": "(BRIGHAM AND WOMEN S HOSPITAL, published 2003)", "binders": {"B1": {"name": "GSTORC5 (GST fused to human ORC5) (other, UniProt O43913 1-435, looked up)", "chain": "MPHLENVVLCRESQVSILQSLFGERHHFSFPSIFIYGHTASGKTYVTQTLLKTLELPHVFVNCVECFTLRLLLEQILNKLNHLSSSEDGCSTEITCETFNDFVRLFKQVTTAENLKDQTVYIVLDKAEYLRDMEANLLPGFLRLQELADRNVTVLFLSEIVWEKFRPNTGCFEPFVLYFPDYSIGNLQKILSHDHPPEYSADFYAAYINILLGVFYTVCRDLKELRHLAVLNFPKYCEPVVKGEASERDTRKLWRNIEPHLKKAMQTVYLREISSSQWEKLQKDDTDPGQLKGLSAHTHVELPYYSKFILIAAYLASYNPARTDKRFFLKHHGKIKKTNFLKKHEKTSNHLLGPKPFPLDRLLAILYSIVDSRVAPTANIFSQITSLVTLQLLTLVGHDDQLDGPKYKCTVSLDFIRAIARTVNFDIIKYLYDFL", "notes": "Baculovirus-expressed; not shown: GST tag of the pFB-GST vector"}}, "key": {"ORC2+3 core complex [1]": {"molecular_target": "T1, ORC2+3 core complex (human, UniProt Q13416 1-577; Q9UBD5 1-711)", "T1 construct": "Untagged ORC2 and ORC3 co-expressed in Sf9 cells with a GST-tagged third subunit; also called ORC2+3 subcomplex; ORC2-3 complex", "T1 sequence (looked up) 1": "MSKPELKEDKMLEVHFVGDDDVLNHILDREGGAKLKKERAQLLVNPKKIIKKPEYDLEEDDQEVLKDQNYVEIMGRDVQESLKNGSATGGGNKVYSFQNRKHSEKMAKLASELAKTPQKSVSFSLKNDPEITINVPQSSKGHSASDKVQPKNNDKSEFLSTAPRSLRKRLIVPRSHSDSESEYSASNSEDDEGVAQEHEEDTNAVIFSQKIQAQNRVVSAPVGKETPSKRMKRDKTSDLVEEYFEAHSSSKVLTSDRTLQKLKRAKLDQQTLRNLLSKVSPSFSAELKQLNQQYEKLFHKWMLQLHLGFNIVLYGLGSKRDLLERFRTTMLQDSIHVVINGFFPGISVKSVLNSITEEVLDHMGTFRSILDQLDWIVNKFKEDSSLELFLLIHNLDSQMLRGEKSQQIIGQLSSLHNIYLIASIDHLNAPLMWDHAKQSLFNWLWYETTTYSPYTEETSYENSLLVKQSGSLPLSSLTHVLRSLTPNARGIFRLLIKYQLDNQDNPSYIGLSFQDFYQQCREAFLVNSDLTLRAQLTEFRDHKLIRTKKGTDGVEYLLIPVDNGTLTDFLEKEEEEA", "T1 sequence (looked up) 2": "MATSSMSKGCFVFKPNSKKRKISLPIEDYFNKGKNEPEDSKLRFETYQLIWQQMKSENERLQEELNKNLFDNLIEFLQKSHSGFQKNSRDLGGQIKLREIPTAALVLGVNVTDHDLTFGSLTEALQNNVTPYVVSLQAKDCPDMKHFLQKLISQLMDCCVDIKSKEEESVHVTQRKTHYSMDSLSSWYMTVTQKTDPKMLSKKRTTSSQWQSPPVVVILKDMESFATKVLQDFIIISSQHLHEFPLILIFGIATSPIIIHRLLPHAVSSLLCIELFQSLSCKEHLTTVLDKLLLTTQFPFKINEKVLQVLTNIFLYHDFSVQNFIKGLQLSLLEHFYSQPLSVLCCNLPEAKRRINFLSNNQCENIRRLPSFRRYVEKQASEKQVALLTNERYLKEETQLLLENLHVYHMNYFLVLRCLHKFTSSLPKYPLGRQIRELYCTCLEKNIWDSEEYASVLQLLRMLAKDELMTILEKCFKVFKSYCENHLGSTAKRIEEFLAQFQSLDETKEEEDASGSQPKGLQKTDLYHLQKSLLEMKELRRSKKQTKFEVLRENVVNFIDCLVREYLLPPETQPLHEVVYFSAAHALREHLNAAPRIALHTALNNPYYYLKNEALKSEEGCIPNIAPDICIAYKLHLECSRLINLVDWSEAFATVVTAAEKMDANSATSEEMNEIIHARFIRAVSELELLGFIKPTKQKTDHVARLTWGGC", "experiment": "co-expression of GSTORC5, ORC2 and ORC3 in Sf9 cells, glutathione beads, immunoblot", "method": "(§1) Cells were harvested 48 hours post-infection. The cell pellet was washed once in cold phosphate buffered saline (PBS), and subsequently resuspended in hypotonic lysis buffer (10 mM Tris.Cl, pH 7.9; 10 mM KCl; 1.5 mM MgCl₂; 1 mM Phenylmethylsulfonyl Fluoride (PMSF); 2 μg/ml pepstatin; 2 μg/ml leupeptin; 5 μg/ml aprotinin; 1 mM DTT). The cell suspension was homogenized in a Dounce homogenizer using a B-type pestle followed by centrifugation at 3000 rpm for 7 min. The pellet containing the nuclei was lysed in buffer H/0.15 (50 mM HEPES.KOH, pH 7.5; 150 mM KCl; 0.02% NP-40; 5 mM Magnesium acetate; 1 mM EDTA; 1 mM EGTA; 10% glycerol, 1 mM PMSF, 2 μg/ml pepstatin, 2 μg/ml leupeptin, 5 μg/ml aprotinin, 1 mM DTT). The resulting suspension was subjected to ammonium sulfate precipitation (starting with 10% followed by 30% and finally 50%). The pellet following 50% ammonium sulfate cut was resuspended in buffer H/0.0 (no salt) and then dialyzed overnight against buffer H/0.15. […] Proteins were eluted using reduced glutathione elution buffer (50 Mm Tris.Cl, pH 8.0; 20 mM reduced glutathione; 0.01% NP-40; 100 mM NaCl). Gel filtration of glutathione eluate using fast protein liquid chromatography Superose 12 (Amersham Pharmacia Biotech Inc, Piscataway, N.J.) column was performed as described previously (Dhar, S. K. & Dutta, A. J Biol Chem 275:34983-8, 2000)."}, "[2]": {"molecular_target": "T2, ORC2, ORC3 and ORC4 co-expressed with GSTORC5 (human, UniProt Q13416 1-577; Q9UBD5 1-711; O43929 1-436)", "T2 construct": "The set of untagged subunits that come down with GSTORC5; written as one partner because the pairwise tests of GSTORC5 with each of them were negative; also called ORC2, 3 and 4", "experiment": "GST pull-down on glutathione beads from Sf9 cells expressing human ORC1-6 with ORC5 GST tagged; immunoblot", "method": "as §1, with “The” for “Cells were harvested 48 hours post-infection. The cell pellet was washed once in cold phosphate buffered saline (PBS), and subsequently resuspended in hypotonic lysis buffer (10 mM Tris.Cl, pH 7.9; 10 mM KCl; 1.5 mM MgCl₂; 1 mM Phenylmethylsulfonyl Fluoride (PMSF); 2 μg/ml pepstatin; 2 μg/ml leupeptin; 5 μg/ml aprotinin; 1 mM DTT). The”\n(§2) To purify recombinant six protein human origin recognition complex, Sf9 insect cells were infected with baculoviruses expressing human ORC1-6 subunits."}, "[3]": {"molecular_target": "T3, complex of GSTORC5, ORC2, ORC3 and ORC4 (human, UniProt O43913 1-435; Q13416 1-577; Q9UBD5 1-711; O43929 1-436)", "T3 construct": "Complex purified on glutathione beads from Sf9 cells; also called GSTORC5, 2, 3 and 4; ORC2, 3, 4 and 5 core complex; not shown: GST tag of the pFB-GST vector", "experiment": "GST pull-down on glutathione beads from Sf9 cells expressing human ORC1-6 with ORC5 GST tagged; immunoblot", "method": "as §1, with “The” for “Cells were harvested 48 hours post-infection. The cell pellet was washed once in cold phosphate buffered saline (PBS), and subsequently resuspended in hypotonic lysis buffer (10 mM Tris.Cl, pH 7.9; 10 mM KCl; 1.5 mM MgCl₂; 1 mM Phenylmethylsulfonyl Fluoride (PMSF); 2 μg/ml pepstatin; 2 μg/ml leupeptin; 5 μg/ml aprotinin; 1 mM DTT). The”\nas §2"}, "[4]": {"molecular_target": "T4, GSTORC2 (GST fused to full-length human ORC2) (human, UniProt Q13416 1-577)", "T4 construct": "domain: full-length; also called GSTO2; not shown: GST tag of pFB-GST (baculovirus) or pGEX-5X-3 (bacterial)", "T4 sequence (looked up)": "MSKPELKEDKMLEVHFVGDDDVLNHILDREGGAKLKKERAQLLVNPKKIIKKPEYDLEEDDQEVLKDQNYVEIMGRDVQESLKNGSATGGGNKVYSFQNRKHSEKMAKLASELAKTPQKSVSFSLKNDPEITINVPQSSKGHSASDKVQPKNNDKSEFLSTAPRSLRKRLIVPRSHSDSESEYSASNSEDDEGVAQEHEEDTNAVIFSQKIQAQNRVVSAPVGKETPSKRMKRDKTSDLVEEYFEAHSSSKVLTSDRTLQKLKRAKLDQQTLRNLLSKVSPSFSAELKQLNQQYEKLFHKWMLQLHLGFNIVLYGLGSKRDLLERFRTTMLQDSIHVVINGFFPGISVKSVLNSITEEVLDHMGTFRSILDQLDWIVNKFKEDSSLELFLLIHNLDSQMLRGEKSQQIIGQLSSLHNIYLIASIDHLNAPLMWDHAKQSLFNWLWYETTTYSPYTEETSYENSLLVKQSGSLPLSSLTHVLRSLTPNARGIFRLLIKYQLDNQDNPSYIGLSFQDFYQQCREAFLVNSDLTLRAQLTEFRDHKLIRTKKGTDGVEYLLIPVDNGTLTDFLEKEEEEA", "experiment": "GST pull-down of 35S-labelled in vitro translated ORC3N on bacterially expressed GSTORC2", "from_the_text": "(§3) Pull-down assays on glutathione agarose beads were done as described in (Lin, Y. L., et al., J Biol Chem 271:17190-8, 1996)."}, "[5]": {"molecular_target": "B1", "experiment": "glutathione beads from Sf9 cells co-expressing GSTORC5, ORC2, ORC4 and ORC3N; western blot", "method": "as §1, with “The” for “Cells were harvested 48 hours post-infection. The cell pellet was washed once in cold phosphate buffered saline (PBS), and subsequently resuspended in hypotonic lysis buffer (10 mM Tris.Cl, pH 7.9; 10 mM KCl; 1.5 mM MgCl₂; 1 mM Phenylmethylsulfonyl Fluoride (PMSF); 2 μg/ml pepstatin; 2 μg/ml leupeptin; 5 μg/ml aprotinin; 1 mM DTT). The”"}, "[6]": {"molecular_target": "T5, GST (glutathione S transferase), control protein (UniProt P08515 1-218 = GST)", "T5 construct": "Negative control in the pull-downs; also called control GST", "T5 sequence (P08515 whole entry)": "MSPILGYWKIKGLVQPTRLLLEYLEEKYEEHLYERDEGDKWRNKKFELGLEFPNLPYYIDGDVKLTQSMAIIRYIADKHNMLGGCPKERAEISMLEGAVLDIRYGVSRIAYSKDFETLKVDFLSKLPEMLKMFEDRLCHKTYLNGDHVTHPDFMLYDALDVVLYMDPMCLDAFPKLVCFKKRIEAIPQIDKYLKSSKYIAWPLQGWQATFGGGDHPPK", "experiment": "GST pull-down of 35S-labelled in vitro translated ORC3N (control of the GSTORC2C experiment)", "from_the_text": "as §3"}, "ORC2+3 core complex [7]": {"molecular_target": "T1, ORC2+3 core complex", "experiment": "co-expression of GSTORC4, ORC2 and ORC3 in Sf9 cells, glutathione beads, immunoblot", "method": "as §1"}}}
{"binder": "B1", "values": [{"measurement": "binding result", "setting": "ORC2+3 core complex [1]", "value": "binds"}, {"measurement": "binding result", "setting": "[2]", "value": "binds"}]}
{"binder": "human ORC6, untagged (other, UniProt Q9Y5N6 1-252, looked up) MGSELIGRLAPRLGLAEPDMLRKAEEYLRLSRVKCVGLSARTTETSSAVMCLDLAASWMKCPLDRAYLIKLSGLNKETYQSCLKSFECLLGLNSNIGIRDLAVQFSCIEAVNMASKILKSYESSLPQTQQVDLDLSRPLFTSAALLSACKILKLKVDKNKMVATSGVKKAIFDRLCKQLEKIGQQVDREPGDVATPPRKRKKIVVEAPAKEMEKVEEMPHKPQKDEDLTQDYEEWKRKILENAASAQKATAE", "values": [{"measurement": "binding result", "setting": "[3]", "value": "no binding"}]}
{"binder": "ORC3N (ORC3N200), N-terminal 200 amino acids of human ORC3 (other, also called construct 3) MATSSMSKGCFVFKPNSKKRKISLPIEDYFNKGKNEPEDSKLRFETYQLIWQQMKSENERLQEELNKNLFDNLIEFLQKSHSGFQKNSRDLGGQIKLREIPTAALVLGVNVTDHDLTFGSLTEALQNNVTPYVVSLQAKDCPDMKHFLQKLISQLMDCCVDIKSKEEESVHVTQRKTHYSMDSLSSWYMTVTQKTDPKML", "values": [{"measurement": "binding result", "setting": "[4]", "value": "binds"}, {"measurement": "binding result", "setting": "[5]", "value": "no binding"}, {"measurement": "binding result", "setting": "[6]", "value": "no binding"}]}
{"binder": "GSTORC4 (GST fused to human ORC4) (other, UniProt O43929 1-436, looked up, Baculovirus-expressed; not shown: GST tag of the pFB-GST vector) MSSRKSKSNSLIHTECLSQVQRILRERFCRQSPHSNLFGVQVQYKHLSELLKRTALHGESNSVLIIGPRGSGKTMLINHALKELMEIEEVSENVLQVHLNGLLQINDKIALKEITRQLNLENVVGDKVFGSFAENLSFLLEALKKGDRTSSCPVIFILDEFDLFAHHKNQTLLYNLFDISQSAQTPIAVIGLTCRLDILELLEKRVKSRFSHRQIHLMNSFGFPQYVKIFKEQLSLPAEFPDKVFAEKWNENVQYLSEDRSVQEVLQKHFNISKNLRSLHMLLMLALNRVTASHPFMTAVDLMEASQLCSMDSKANIVHGLSVLEICLIIAMKHLNDIYEEEPFNFQMVYNEFQKFVQRKAHSVYNFEKPVVMKAFEHLQQLELIKPMERTSGNSQREYQLMKLLLDNTQIMNALQKYPNCPTDVRQWATSSLSWL", "values": [{"measurement": "binding result", "setting": "ORC2+3 core complex [7]", "value": "no binding"}]}
